For assay [1], the target named is T1, recombinant human IGF-1R on I24 cells (NIH3T3 cells expressing recombinant human IGF-1R) (human, UniProt P08069 31-1367).
T1 construct: whole, on cells; also called IGF-1R in I24 cells
The assay is described as follows: cellular FACS IGF-1R-ANGPT2 bridging assay on I24 cells; antibody on cells, washed, then ANGPT2, detected with biotinylated anti-ANGPT2 and Streptavidin-PE. How it is done:
(§1) The assay principle is depicted in FIG. 10.
(§2) Briefly, 5×10E5 I24 cells per FACS tube were incubated with total purified antibody mix and incubated on ice for 1 h (titration 160 μg/ml mix). The respective purified antibodies wildtype <IGF-1R> and <ANGPT2> were applied to the I24 cells as controls. Unbound antibody was washed away with 4 ml ice cold PBS (Gibco)+2% FCS (Gibco), cells were centrifuged (5 min at 400 g) and bound bispecific antibody was detected with 50 μl 2 μg/mL human ANGPT2 (R&D Systems) for 1 h on ice. Subsequently, unbound ANGPT2 was washed away once or twice with 4 ml ice cold PBS (Gibco)+2% FCS (Gibco), cells were centrifuged (5 min at 400 g) and bound ANGPT2 was detected with 50 μl 5 μg/mL <ANGPT2>mIgG1-Biotin antibody (BAM0981, R&D Systems) for 45 min on ice; alternatively, cells were incubated with 50 μl 5 μg/mL mIgG1-Biotin-Isotype control (R&D Systems). Unbound detection antibody was washed away with 4 ml ice cold PBS (Gibco)+2% FCS (Gibco), cells were centrifuged (5 min at 400 g) and bound detection antibody was detected with 50 μl 1:400 Streptavidin-PE conjugate (Invitrogen/Zymed) for 45 min on ice protected from light. Unbound Streptavidin-PE conjugate was washed away with 4 ml ice cold PBS+2% FCS. […]

Assay [2] addresses T2, human ANGPT2 (R&D Systems) (human, UniProt O15123 68-496, limits assumed).
T2 construct: Bought reagent; also called hANGPT2; Angiopoietin-2
T2 sequence (looked up): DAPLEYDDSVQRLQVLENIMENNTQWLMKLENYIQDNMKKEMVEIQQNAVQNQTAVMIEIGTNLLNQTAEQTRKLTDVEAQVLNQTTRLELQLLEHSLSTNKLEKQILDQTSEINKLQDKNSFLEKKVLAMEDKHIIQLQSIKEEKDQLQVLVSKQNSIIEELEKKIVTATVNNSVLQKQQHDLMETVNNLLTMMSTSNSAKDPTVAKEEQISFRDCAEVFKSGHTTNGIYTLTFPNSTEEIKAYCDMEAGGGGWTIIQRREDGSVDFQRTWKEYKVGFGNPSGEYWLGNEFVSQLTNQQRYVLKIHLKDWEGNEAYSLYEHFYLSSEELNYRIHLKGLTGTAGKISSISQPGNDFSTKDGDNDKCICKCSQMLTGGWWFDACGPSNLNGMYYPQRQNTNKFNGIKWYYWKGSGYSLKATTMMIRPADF
The assay can be described thus: cellular FACS IGF-1R-ANGPT2 bridging assay on I24 cells; antibody on cells, then ANGPT2, detected with biotinylated anti-ANGPT2 and Streptavidin-PE. On the procedure: as §1, §2

B1: monospecific, bivalent <ANGPT2> wildtype antibody (antibody, V domains shown)
VH: EVQLVQSGGGVVQPGRSLRLSCAASGFTFSSYGMHWVRQAPGKGLEWVSYISSSGSTIYYADSVKGRFTISRDNAKNSLYLQMNSLRAEDTAVYYCARDLLDYDILTGYGYWGQGTLVTVSS
VL: not shown
notes: Human IgG1/kappa antibody described in WO 2006/045049; also called wildtype <ANGPT2> antibody; <Ang-2> control antibody
B1: the binding result in assay [1] is reported as “no binding”.

B2: wildtype <IGF-1R> antibody (antibody, V domains shown)
VH: QVELVESGGGVVQPGRSQRLSCAASGFTFSSYGMHWVRQAPGKGLEWVAIIWFDGSSTYYADSVRGRFTISRDNSKNTLYLQMNSLRAEDTAVYFCARELGRRYFDLWGRGTLVSVSS
VL: EIVLTQSPATLSLSPGERATLSCRASQSVSSYLAWYQQKPGQAPRLLIYDASKRATGIPARFSGSGSGTDFTLTISSLEPEDFAVYYCQQRSKWPPWTFGQGTKVESKR
notes: Human IgG1/kappa antibody described in WO 2005/005635; also called <IGF-1R> wildtype antibody; <IGF-1R> control antibody
On to B2, for which the binding result in assay [2] is “no binding (tested: 2 µg/mL human ANGPT2)”.

The values are drawn from patent US20120225071A1 (Hoffmann-La Roche, published 2012).
